# B1: Golgi SNAP receptor complex member 2 (Homo sapiens), O14653 (parent)
# chain: MDPLFQQTHKQVHEIQSCMGRLETADKQSVHIVENEIQASIDQIFSRLERLEILSSKEPPNKRQNARLRVDQLKYDVQHLQTALRNFQHRRHAREQQERQREELLSRTFTTNDSDTTIPMDESLQFNSSLQKVHNGMDDLILDGHNILDGLRTQRLTLKGTQKKILDIANMLGLSNTVMRLIEKRAFQDKYFMIGGMLLTCVVMFLVVQYLT
# B2: Golgi SNAP receptor complex member 2 (Homo sapiens), O14653 (parent)
# chain: B1 chain
# partner: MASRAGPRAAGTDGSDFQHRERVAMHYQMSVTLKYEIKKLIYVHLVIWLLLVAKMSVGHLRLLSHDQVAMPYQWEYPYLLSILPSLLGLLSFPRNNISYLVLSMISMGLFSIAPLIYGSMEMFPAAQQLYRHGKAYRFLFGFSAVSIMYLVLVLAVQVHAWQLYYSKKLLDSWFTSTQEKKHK
# B3: Golgi SNAP receptor complex member 2 (Homo sapiens), O14653 (parent)
# chain: B1 chain
# partner: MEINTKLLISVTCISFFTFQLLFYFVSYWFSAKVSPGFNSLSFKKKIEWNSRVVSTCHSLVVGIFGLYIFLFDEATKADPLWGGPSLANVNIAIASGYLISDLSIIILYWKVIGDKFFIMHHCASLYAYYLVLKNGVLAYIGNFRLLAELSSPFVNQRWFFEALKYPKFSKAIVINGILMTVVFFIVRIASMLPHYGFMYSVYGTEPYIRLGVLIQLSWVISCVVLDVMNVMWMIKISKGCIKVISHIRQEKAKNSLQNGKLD
# B4: Catenin alpha-3 (Homo sapiens), Q9UI47-2 (parent)
# chain: MSAETPITLNIDPQDLQVQTFTVEKLLEPLIIQVTTLVNCPQNPSSRKKGRSKRASVLLASVEEATWNLLDKGEKIAQEATVLKDELTASLEEVRKESEALKVSAERFTDDPCFLPKREAVVQAARALLAAVTRLLILADMIDVMCLLQHVSAFQRTFESLKNVANKSDLQKTYQKLGKELENLDYLAFKRQQDLKSPNQRDEIAGARASLKENSPLLHSICSACLEHSDVASLKASKDTVCEEIQNALNVISNASQGIQNMTTPPEPQAATLGSALDELENLIVLNPLTVTEEEIRPSLEKRLEAIISGAALLADSSCTRDLHRERIIAECNAIRQALQDLLSEYMNNAGKKERSNTLNIALDNMCKKTRDLRRQLRKAIIDHVSDSFLDTTVPLLVLIEAAKNGREKEIKEYAAIFHEHTSRLVEVANLACSMSTNEDGIKIVKIAANHLETLCPQIINAALALAARPKSQAVKNTMEMYKRTWENHIHVLTEAVDDITSIDDFLAVSGMFLFF
# partner: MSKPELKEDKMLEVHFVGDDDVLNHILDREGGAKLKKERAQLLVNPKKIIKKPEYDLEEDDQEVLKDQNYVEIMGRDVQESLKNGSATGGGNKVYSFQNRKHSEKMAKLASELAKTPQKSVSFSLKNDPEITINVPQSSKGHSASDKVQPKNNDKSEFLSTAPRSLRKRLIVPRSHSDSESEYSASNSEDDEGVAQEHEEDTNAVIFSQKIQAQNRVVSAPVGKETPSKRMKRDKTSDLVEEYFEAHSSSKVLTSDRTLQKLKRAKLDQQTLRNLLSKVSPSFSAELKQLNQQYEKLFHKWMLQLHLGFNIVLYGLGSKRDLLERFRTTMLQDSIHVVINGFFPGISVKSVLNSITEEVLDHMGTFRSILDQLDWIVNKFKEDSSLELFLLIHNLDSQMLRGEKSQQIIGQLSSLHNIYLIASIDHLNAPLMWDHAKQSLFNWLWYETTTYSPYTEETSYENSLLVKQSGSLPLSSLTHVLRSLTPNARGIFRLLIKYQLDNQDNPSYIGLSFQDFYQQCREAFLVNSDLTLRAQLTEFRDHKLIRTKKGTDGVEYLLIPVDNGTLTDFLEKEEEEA
# B5: Transmembrane protein 43 (Homo sapiens), Q9BTV4 (parent)
# chain: MAANYSSTSTRREHVKVKTSSQPGFLERLSETSGGMFVGLMAFLLSFYLIFTNEGRALKTATSLAEGLSLVVSPDSIHSVAPENEGRLVHIIGALRTSKLLSDPNYGVHLPAVKLRRHVEMYQWVETEESREYTEDGQVKKETRYSYNTEWRSEIINSKNFDREIGHKNPSAMAVESFMATAPFVQIGRFFLSSGLIDKVDNFKSLSLSKLEDPHVDIIRRGDFFYHSENPKYPEVGDLRVSFSYAGLSGDDPDLGPAHVVTVIARQRGDQLVPFSTKSGDTLLLLHHGDFSAEEVFHRELRSNSMKTWGLRAAGWMAMFMGLNLMTRILYTLVDWFPVFRDLVNIGLKAFAFCVATSLTLLTVAAGWLFYRPLWALLIAGLALVPILVARTRVPAKKLE
# partner: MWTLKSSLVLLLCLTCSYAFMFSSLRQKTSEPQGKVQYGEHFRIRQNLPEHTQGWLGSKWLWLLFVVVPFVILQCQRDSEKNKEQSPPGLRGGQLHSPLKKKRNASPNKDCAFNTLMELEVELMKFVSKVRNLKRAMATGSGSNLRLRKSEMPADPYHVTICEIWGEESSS
# B6: Catenin alpha-3 (Homo sapiens), Q9UI47-2 (parent)
# chain: B4 chain
# partner: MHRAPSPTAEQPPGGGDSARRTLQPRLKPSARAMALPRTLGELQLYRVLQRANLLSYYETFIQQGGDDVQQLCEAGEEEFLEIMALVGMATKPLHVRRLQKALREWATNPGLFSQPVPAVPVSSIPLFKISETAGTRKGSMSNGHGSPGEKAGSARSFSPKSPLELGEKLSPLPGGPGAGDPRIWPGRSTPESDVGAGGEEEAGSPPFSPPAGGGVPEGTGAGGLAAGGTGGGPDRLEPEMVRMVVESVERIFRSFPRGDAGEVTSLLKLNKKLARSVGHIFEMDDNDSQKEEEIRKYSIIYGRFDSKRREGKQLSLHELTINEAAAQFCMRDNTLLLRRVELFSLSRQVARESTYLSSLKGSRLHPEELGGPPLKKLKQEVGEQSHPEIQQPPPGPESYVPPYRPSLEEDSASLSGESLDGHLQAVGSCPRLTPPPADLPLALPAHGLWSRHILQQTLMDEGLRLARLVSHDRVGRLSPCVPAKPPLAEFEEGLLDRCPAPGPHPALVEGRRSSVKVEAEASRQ
# B7: Very-long-chain enoyl-CoA reductase (Homo sapiens), Q9NZ01 (parent)
# chain: MKHYEVEILDAKTREKLCFLDKVEPHATIAEIKNLFTKTHPQWYPARQSLRLDPKGKSLKDEDVLQKLPVGTTATLYFRDLGAQISWVTVFLTEYAGPLFIYLLFYFRVPFIYGHKYDFTSSRHTVVHLACICHSFHYIKRLLETLFVHRFSHGTMPLRNIFKNCTYYWGFAAWMAYYINHPLYTPPTYGAQQVKLALAIFVICQLGNFSIHMALRDLRPAGSKTRKIPYPTKNPFTWLFLLVSCPNYTYEVGSWIGFAIMTQCLPVALFSLVGFTQMTIWAKGKHRSYLKEFRDYPPLRMPIIPFLL
# partner: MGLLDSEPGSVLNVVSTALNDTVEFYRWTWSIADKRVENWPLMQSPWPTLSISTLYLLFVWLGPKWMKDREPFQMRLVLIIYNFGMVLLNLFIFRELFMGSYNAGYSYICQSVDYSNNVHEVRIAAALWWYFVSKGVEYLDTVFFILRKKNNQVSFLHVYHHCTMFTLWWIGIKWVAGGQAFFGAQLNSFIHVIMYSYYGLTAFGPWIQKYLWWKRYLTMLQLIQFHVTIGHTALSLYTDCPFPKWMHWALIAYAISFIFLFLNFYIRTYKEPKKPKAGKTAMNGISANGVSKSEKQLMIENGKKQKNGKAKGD
# B8: Golgi SNAP receptor complex member 2 (Homo sapiens), O14653 (parent)
# chain: B1 chain
# partner: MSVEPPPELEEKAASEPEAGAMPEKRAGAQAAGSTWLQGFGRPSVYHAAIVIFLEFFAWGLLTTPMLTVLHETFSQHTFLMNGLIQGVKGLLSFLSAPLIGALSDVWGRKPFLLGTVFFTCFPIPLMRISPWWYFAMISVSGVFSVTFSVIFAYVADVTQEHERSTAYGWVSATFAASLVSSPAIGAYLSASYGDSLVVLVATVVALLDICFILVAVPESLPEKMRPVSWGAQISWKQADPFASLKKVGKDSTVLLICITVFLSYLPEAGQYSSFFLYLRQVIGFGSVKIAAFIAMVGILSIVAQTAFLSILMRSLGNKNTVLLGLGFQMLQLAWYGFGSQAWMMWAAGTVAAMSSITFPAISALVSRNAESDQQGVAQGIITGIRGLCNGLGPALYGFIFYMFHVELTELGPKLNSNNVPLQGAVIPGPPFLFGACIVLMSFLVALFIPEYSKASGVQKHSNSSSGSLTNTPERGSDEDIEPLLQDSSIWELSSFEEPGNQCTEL
# B9: Catenin alpha-3 (Homo sapiens), Q9UI47-2 (parent)
# chain: B4 chain
# partner: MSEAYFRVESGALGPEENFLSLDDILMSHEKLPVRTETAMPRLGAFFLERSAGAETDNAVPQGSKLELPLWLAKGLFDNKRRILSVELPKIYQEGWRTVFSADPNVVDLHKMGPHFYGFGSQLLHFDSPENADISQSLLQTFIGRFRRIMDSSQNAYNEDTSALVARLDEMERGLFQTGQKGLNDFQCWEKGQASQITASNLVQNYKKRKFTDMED
# B10: Very-long-chain enoyl-CoA reductase (Homo sapiens), Q9NZ01 (parent)
# chain: B7 chain
# partner: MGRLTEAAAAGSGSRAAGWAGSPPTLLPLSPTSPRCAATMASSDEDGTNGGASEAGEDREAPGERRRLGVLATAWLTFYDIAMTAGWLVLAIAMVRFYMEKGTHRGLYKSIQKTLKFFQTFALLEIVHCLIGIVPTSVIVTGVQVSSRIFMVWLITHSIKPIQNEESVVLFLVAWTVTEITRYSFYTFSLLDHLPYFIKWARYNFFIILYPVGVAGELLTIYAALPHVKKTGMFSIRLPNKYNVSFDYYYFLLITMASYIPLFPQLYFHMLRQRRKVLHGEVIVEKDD
# B11: Catenin alpha-3 (Homo sapiens), Q9UI47-2 (parent)
# chain: B4 chain
# partner: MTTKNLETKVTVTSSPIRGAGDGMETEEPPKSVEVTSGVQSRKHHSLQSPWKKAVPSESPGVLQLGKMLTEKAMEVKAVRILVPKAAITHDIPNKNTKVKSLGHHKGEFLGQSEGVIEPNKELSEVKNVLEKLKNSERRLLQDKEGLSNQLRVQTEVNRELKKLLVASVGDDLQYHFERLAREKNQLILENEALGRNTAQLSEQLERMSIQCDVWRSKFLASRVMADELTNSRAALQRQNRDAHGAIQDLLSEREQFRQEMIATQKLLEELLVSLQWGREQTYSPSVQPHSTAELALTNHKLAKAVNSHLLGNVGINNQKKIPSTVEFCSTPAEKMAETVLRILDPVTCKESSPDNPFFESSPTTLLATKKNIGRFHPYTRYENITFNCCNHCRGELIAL
# B12: Very-long-chain enoyl-CoA reductase (Homo sapiens), Q9NZ01 (parent)
# chain: B7 chain
# partner: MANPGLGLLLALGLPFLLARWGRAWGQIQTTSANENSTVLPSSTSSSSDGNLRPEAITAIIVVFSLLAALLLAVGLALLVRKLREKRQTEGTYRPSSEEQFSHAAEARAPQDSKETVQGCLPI
# Variants of: B1
# Settings: with stx4_human STX4, Q12846
# Sequence of stx4_human STX4, Q12846 (Q12846 whole entry): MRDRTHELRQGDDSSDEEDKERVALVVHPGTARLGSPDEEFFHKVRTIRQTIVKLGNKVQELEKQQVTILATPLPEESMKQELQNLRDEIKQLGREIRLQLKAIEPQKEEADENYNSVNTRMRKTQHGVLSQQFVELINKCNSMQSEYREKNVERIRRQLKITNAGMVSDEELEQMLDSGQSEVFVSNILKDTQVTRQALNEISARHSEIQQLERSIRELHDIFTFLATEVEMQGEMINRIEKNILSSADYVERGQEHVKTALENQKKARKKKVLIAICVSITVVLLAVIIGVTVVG
row,Variant,effect of a mutation on the interaction
1,G144W,with no effect

# Variants of: B1
# Settings: with stx1a_human STX1A
row,Variant,effect of a mutation on the interaction
1,G144W,with no effect

# Variants of: B1
# Settings: with retr3_human RETREG3, Q86VR2
# Sequence of retr3_human RETREG3, Q86VR2 (Q86VR2 whole entry): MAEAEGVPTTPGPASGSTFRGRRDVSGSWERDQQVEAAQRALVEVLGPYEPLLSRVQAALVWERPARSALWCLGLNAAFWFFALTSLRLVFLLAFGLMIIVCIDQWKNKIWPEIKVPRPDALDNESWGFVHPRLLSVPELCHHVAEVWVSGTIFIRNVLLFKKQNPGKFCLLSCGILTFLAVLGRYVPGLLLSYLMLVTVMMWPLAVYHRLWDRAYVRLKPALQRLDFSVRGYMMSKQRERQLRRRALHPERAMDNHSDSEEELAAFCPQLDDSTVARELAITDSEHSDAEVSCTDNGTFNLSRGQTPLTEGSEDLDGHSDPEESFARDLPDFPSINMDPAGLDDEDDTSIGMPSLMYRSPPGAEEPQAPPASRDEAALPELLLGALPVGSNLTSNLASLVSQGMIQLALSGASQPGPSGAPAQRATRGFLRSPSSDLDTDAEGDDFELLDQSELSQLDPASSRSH
row,Variant,effect of a mutation on the interaction
1,G144W,with no effect

# Variants of: B1
# Settings: with tm205_human TMEM205, Q6UW68
# Sequence of tm205_human TMEM205, Q6UW68 (Q6UW68 whole entry): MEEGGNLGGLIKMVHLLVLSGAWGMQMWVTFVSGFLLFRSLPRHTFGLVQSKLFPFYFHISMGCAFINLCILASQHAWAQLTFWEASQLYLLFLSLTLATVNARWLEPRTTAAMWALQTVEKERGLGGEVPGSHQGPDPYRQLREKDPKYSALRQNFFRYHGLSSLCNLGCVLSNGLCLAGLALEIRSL
row,Variant,effect of a mutation on the interaction
1,G144W,with no effect

# Variants of: B1
# Settings: with ebp_human EBP
row,Variant,effect of a mutation on the interaction
1,G144W,with no effect

# Variants of: B1
# Settings: with gp152_human GPR152, Q8TDT2
# Sequence of gp152_human GPR152, Q8TDT2 (Q8TDT2 whole entry): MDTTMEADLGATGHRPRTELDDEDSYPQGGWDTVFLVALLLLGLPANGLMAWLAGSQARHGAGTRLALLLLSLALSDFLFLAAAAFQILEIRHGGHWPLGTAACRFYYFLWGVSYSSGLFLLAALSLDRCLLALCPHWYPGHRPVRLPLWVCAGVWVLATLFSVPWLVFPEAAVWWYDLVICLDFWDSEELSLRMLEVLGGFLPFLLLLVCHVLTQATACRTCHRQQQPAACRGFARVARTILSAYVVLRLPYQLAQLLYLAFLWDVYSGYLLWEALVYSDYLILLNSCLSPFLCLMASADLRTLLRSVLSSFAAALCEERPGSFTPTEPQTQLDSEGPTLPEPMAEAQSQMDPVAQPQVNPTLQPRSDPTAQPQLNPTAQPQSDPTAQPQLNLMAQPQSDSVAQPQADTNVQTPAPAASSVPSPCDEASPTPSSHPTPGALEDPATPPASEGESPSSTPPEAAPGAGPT
row,Variant,effect of a mutation on the interaction
1,G144W,with no effect

# Variants of: B1
# Settings: with ar13b_human ARL13B
row,Variant,effect of a mutation on the interaction
1,G144W,disrupting interaction strength

# Variants of: B2
# Settings: with jagn1_human JAGN1, Q8N5M9
row,Variant,effect of a mutation on the interaction
1,G144W,with no effect

# Variants of: B3
# Settings: with tlcd4_human TLCD4, Q96MV1
row,Variant,effect of a mutation on the interaction
1,G144W,with no effect

# Variants of: B4
# Settings: with orc2_human ORC2, Q13416
row,Variant,effect of a mutation on the interaction
1,V94D,disrupting interaction strength

# Variants of: B5
# Settings: with FAM209A
row,Variant,effect of a mutation on the interaction
1,Y371H,with no effect
2,E142K,disrupting interaction strength
3,E85K,disrupting interaction strength
4,I91V,with no effect
5,R28W,with no effect

# Variants of: B6
# Settings: with nab2_human NAB2, Q15742
row,Variant,effect of a mutation on the interaction
1,V94D,disrupting interaction strength

# Variants of: B7
# Settings: with elov4_human ELOVL4, Q9GZR5
row,Variant,effect of a mutation on the interaction
1,P182L,disrupting interaction strength

# Variants of: B8
# Settings: with mf14b_human MFSD14B
row,Variant,effect of a mutation on the interaction
1,G144W,with no effect

# Variants of: B9
# Settings: with psf3_human GINS3, Q9BRX5
row,Variant,effect of a mutation on the interaction
1,V94D,disrupting interaction strength

# Variants of: B10
# Settings: with hacd1_human HACD1, B0YJ81
row,Variant,effect of a mutation on the interaction
1,P182L,disrupting interaction strength

# Variants of: B11
# Settings: with go45_human BLZF1, Q9H2G9
row,Variant,effect of a mutation on the interaction
1,V94D,disrupting interaction strength

# Variants of: B12
# Settings: with CRB3, Q9BUF7-2
row,Variant,effect of a mutation on the interaction
1,P182L,disrupting interaction strength

# — IntAct's records for PubMed 32296183
